Experimental findings from publication PMC4282169 are described below.

Substrate in data set [1]: O=[N+]([O-])c1ccc(O[C@@H]2O[C@H](CO)[C@@H](O[C@@H]3O[C@H](CO[C@H]4OC[C@@H](O)[C@H](O)[C@H]4O)[C@@H](O[C@@H]4O[C@H](CO[C@H]5OC[C@@H](O)[C@H](O)[C@H]5O)[C@@H](O[C@@H]5O[C@H](CO[C@H]6OC[C@@H](O)[C@H](O)[C@H]6O)[C@@H](O)[C@H](O)[C@H]5O)[C@H](O)[C@H]4O)[C@H](O)[C@H]3O)[C@H](O)[C@H]2O)c(Cl)c1
Kind of data set: 2-chloro-4-nitrophenolate release, A405, continuous. The class given is biochemical, Bacteroides ovatus. The settings on record: 37 °C, 50 mM buffer at or near pH optimum (6.0-7.0).

Substrate in data set [2]: O=[N+]([O-])c1ccc(O[C@@H]2O[C@H](CO)[C@@H](O[C@@H]3O[C@H](CO)[C@@H](O[C@@H]4O[C@H](CO)[C@@H](O[C@@H]5O[C@H](CO)[C@@H](O)[C@H](O)[C@H]5O)[C@H](O)[C@H]4O)[C@H](O)[C@H]3O)[C@H](O)[C@H]2O)c(Cl)c1
The data set is described as above. Format: biochemical, Bacteroides ovatus. As to conditions: 37 °C, 50 mM buffer at or near pH optimum (6.0-7.0).

Substrate in data set [3]: O=[N+]([O-])c1ccc(O[C@H]2OC[C@@H](O)[C@H](O)[C@H]2O)cc1
Kind of data set: 4-nitrophenolate release, A410. As to conditions: 37 °C, 50 mM buffer at or near pH optimum (6.0-7.0). Format: biochemical, Bacteroides ovatus.

Substrate in the data set “HPLC”: OC[C@H]1O[C@@H](O[C@H]2[C@@H](OC[C@H]3O[C@@H](O[C@H]4[C@H](O)[C@@H](O)[C@H](O[C@H]5[C@H](O)[C@@H](O)C(O)O[C@@H]5CO)O[C@@H]4CO[C@H]4OC[C@@H](O)[C@H](O)[C@H]4O[C@@H]4O[C@H](CO)[C@H](O)[C@H](O)[C@H]4O)[C@H](O)[C@@H](O)[C@@H]3O[C@@H]3O[C@H](CO[C@H]4OC[C@@H](O)[C@H](O)[C@H]4O)[C@@H](O)[C@H](O)[C@H]3O)OC[C@@H](O)[C@@H]2O)[C@H](O)[C@@H](O)[C@H]1O
In words: HPLC. The class given is biochemical, Bacteroides ovatus. The settings on record: 37 °C, 50 mM buffer at or near pH optimum (6.0-7.0).

Substrate in data set [4]: O=[N+]([O-])c1ccc(O[C@H]2O[C@H](CO)[C@@H](O)[C@H](O)[C@H]2O)cc1
Kind of data set: purified protein. As to conditions: 37 °C, 50 mM buffer at or near pH optimum (6.0-7.0).

Substrate in data set [5]: O=[N+]([O-])c1ccc(O[C@@H]2O[C@H](CO)[C@H](O)[C@H](O)[C@H]2O)cc1
Kind of data set: purified protein. As to conditions: 37 °C, 50 mM buffer at or near pH optimum (6.0-7.0).

Substrate in data set [6]: O=[N+]([O-])c1ccc(O[C@@H]2O[C@H](CO)[C@@H](O)[C@H](O)[C@H]2O)cc1
Kind of data set: purified protein. The settings on record: 37 °C, 50 mM buffer at or near pH optimum (6.0-7.0).

Substrate in data set [7]: O=[N+]([O-])c1ccc(O[C@@H]2O[C@@H](CO)[C@H](O)[C@H]2O)cc1
Kind of data set: continuous 4-nitrophenolate release. Format: biochemical, Bacteroides ovatus. The settings on record: 37 °C, pH 7.0.

Substrate in data set [8]: O=[N+]([O-])c1ccc(O[C@@H]2O[C@@H](CO)[C@H](O)[C@H]2O)cc1
Kind of data set: 4-nitrophenolate release, A410. The class given is biochemical, Bacteroides ovatus. As to conditions: 37 °C, 50 mM buffer at or near pH optimum (6.0-7.0).

Substrate in data set [9]: O=[N+]([O-])c1ccc(O[C@@H]2OC[C@@H](O)[C@H](O)[C@H]2O)cc1
In words: 4-nitrophenolate release, A410. The class given is biochemical, Bacteroides ovatus. The settings on record: 37 °C, 50 mM buffer at or near pH optimum (6.0-7.0).

B1: BoGH5A (Bacteroides ovatus ATCC 8483) (protein)
chain: SNSDEKGGSLEVAQEYRNLEFDARGSRQTIQIDGPAEWHISTSESWCKSSHTIGEGKQYVNITVEANDTQKERTATVTVSASGAPDIIINVKQSLYSVPAYDEYIAPDNTGMRDLTSMQLSALMKAGVNVGNTFEAVIVGNDGSLSGDETCWGNPTPNKVLFEGIKAAGFDVVRIPVAYSHQFEDAATYKIKSAWMDKVEAAVKAALDAGLYVIINIHWEGGWLNHPVDANKEALDERLEAMWKQIALRFRDYDDRLLFAGTNEVNNDDANGAQPTEENYRVQNGFNQVFVNTVRATGGRNHYRHLIVQAYNTDVAKAVAHFTMPLDIVQNRIFLECHYYDPYDFTIMPNDENFKSQWGAAFAGGDVSATGQEGDIEATLSSLNVFINNNVPVIIGEYGPTLRDQLTGEALENHLKSRNDYIEYVVKTCVKNKLVPLYWDAGYTEKLFDRTTGQPHNAASIAAIMKGLN
By Km is commonly meant the substrate concentration at which the rate is half of its maximum. A word on the kcat: it is the maximal rate divided by the concentration of active sites. A word on the kcat/Km: it is the turnover number divided by the Michaelis constant. Turning to B1, in data set [1], the Km worked out at 36 ± 2.7 µM, the kcat was determined as 10.5 ± 0.14 s⁻¹ and the kcat/Km turned out to be 292000 M⁻¹ s⁻¹. For the same protein, in data set [2], the Km is 3590 ± 1270 µM, the kcat turned out to be 0.12 ± 0.025 s⁻¹ and the kcat/Km was found to be 34 M⁻¹ s⁻¹.

B2: BoGH31A (Bacteroides ovatus ATCC 8483) (protein)
chain: SNKVYEKTGDSVIVKVQHKETGGPRLVRLQVMGDKLIHVSATADSKFADPQSLIVVPQKKQTSFAVVQNGDTITVSTEEVKASVLASTGEVWFTDKNGELILQENKGGGKTFTPIEVEGTKGYTVCQVFESPEDEAFYGLGQHQADEFNYKGKNEELFQYNTKVSVPFVVSNKNYGILLDSYSFCRFGNPNDYSQLNRIFKLYDKTGQEGALTGTYVPKKGETLVRREDSIYFENLKTIENLPKKLPLMGAKVTYEGEIEPAQTGEFKFILYYAGYVKVYLNNEPVVPERWRTAWNPNSYKFAAHLEAGKRVPLKIEWQPDGGQSYCGLRALTPVNPEEQGKQSWWSEMTKQLDYYFMAGENMDDVISGYRSLTGKSPVMPKWAMGFWQSREKYNTQEEMLGALKGFRDRKIPLDNIVLDWNHWPENAWGSHEFDKARFPDPKAMVDSIHAMHARMMISVWPKFYVTTEHFKEFDENGWMYQQSVKDSLKDWVGPGYHYGFYDAYDPDARKLFWKQMYEHYYPLGIDAWWMDASEPNVRDCTDLEYRKALCGPTALGSSTEFFNAYALMNAEAIYDGQRGVDNNKRVFLLTRSGFAGLQRYSTATWSGDIGTRWEDMKAQISAGLNFAMSGIPYWTMDIGGFCVENRYVAGQKQWNATKTENADYKEWRELNTRWYQFGAFVPLYRAHGQYPFREIWEIAPEGHPAYQSVVYYTKLRYNMMPYIYSLAGMTWFDDYTIMRPLVMDFTADAEVNDIGDQFMFGPSFMVSPVYRYGDRSREIYFPQAEGWYDFYSGKFQAGGERKVIEAPYERIPLYVRAGAIIPFGDDIQYTDEKPAEHIRLYIYQGADGEFTLYEDEGVNYNYEQGMYAMIPMKYDEATKTLVIGERQGEFPGMLKERTFTVVTVNKEKAQPFDLNAKGVTVKYNGSEQTLKL
For the protein B2, in data set [3], the Km amounted to 7700 ± 273 µM, the kcat is 1.6 ± 0.031 s⁻¹ and the kcat/Km came to 210 M⁻¹ s⁻¹. Moreover, in the data set “HPLC”, the Km turned out to be 378 ± 75 µM, the kcat came out at 31 ± 1.9 s⁻¹ and the specificity constant (kcat/Km) was found to be 82000 M⁻¹ s⁻¹. In the data set “purified protein [4]”, the Km came out at 31800 ± 5100 µM, the kcat was 0.071 s⁻¹ and the kcat/Km was 2.2 M⁻¹ s⁻¹.

B3: BoGH2A (Bacteroides ovatus ATCC 8483) (protein)
chain: LALGGCLMLLGACSSSSLVSPRERSDFNADWRFHLGDGLQAAQPGFADNDWRVLDLPHDWAIEGDFSQENPSGTGGGALPGGVGWYRKTFSVDKADAGKIFRIEFDGVYMNSEVFINGVSLGVRPYGYISFSYDLTPYLKWDEPNVLAVRVDNAEQPNSRWYSGCGIYRNVWLSKTGPIHVGGWGTYVTTSSVDEKQAVLNLATTLVNESDTNENVTVCSSLQDAEGREVAETRSSGEAEAGKEVVFTQQLTVKQPQLWDIDTPYLYTLVTKVMRNEECMDRYTTPVGIRTFSLDARKGFTLNGRQTKINGVCMHHDLGCLGAAVNTRAIERHLQILKEMGCNGIRCSHNPPAPELLDLCDRMGFIVMDEAFDMWRKKKTAHDYARYFNEWHERDLNDFILRDRNHPSVFMWSIGNEVLEQWSDAKADTLSLEEANLILNFGHSSEMLAKEGEESVNSLLTKKLVSFVKGLDPTRPVTAGCNEPNSGNHLFRSGVLDVIGYNYHNKDIPNVPANFPDKPFIITESNSALMTRGYYRMPSDRMFIWPKRWDKSFADSTFACSSYENCHVPWGNTHEESLKLVRDNDFISGQYVWTGFDYIGEPTPYGWPARSSYFGIVDLAGFPKDVYYLYQSEWTDKQVLHLFPHWNWTPGQEIDMWCYYNQADEVELFVNGKSQGVKRKDLDNLHVAWRVKFEPGTVKVIARESGKVVAEKEICTAGKPAEIRLTPDRSILTADGKDLCFVTVEVLDEKGNLCPDADNLVNFTVQGNGFIAGVDNGNPVSMERFKDEKRKAFYGKCLVVIQNDGKPGKAKLTATSEGLRQAVLKISAEEL
Regarding B3, in “purified protein [5]”, the Km amounted to 87 ± 7.4 µM, the catalytic constant (kcat) was found to be 4 s⁻¹ and the kcat/Km is 46000 M⁻¹ s⁻¹.

B4: BoGH3B (Bacteroides ovatus ATCC 8483) (protein)
chain: QTASPVIPTDPAIETHIREWLQKMTLEQKIGQMCEITIDVVSDLETSRKKGFCLSEAMLDTVIGKYKVGSLLNVPLGVAQKKEKWAEAIKQIQEKSMKEIGIPCIYGVDQIHGTTYTLDGTMFPQGINMGATFNRELTRRGAKISAYETKAGCIPWTFAPVVDLGRDPRWARMWENYGEDCYVNAEMGVSAVKGFQGEDPNRIGEYNVAACMKHYMGYGVPVSGKDRTPSSISRSDMREKHFAPFLAAVRQGALSVMVNSGVDNGLPFHANRELLTEWLKEDLNWDGLIVTDWADINNLCTRDHIAATKKEAVKIVINAGIDMSMVPYEVSFCDYLKELVEEGEVSMERIDDAVARVLRLKYRLGLFDHPYWDIKKYDKFGSKEFAAVALQAAEESEVLLKNDGNILPIAKGKKILLTGPNANSMRCLNGGWSYSWQGHVADEYAQAYHTIYEALCEKYGKENIIYEPGVTYASYKNDNWWEENKPETEKPVAAAAQADIIITCIGENSYCETPGNLTDLTLSENQRNLVKALAATGKPIVLVLNQGRPRIINDIVPLAKAVVNIMLPSNYGGDALANLLAGDANFSGKMPFTYPRLINALATYDYKPCENMGQMGGNYNYDSVMDIQWPFGFGLSYTNYKYSNLKVNKPTFNADDELIFTVDVTNTGKVAGKESVLLFSKDLVASSTPDNIRLRNFEKVSLEPGETKTVTLKLKGSDLAFVGYDGKWRLEKGDFKIKCGDQWMDIVCDQTKVWNTPNKNTLHK
As to B4, in the data set “purified protein [6]”, the Michaelis constant (Km) stood at 155 ± 39 µM, the kcat was 1.74 s⁻¹ and the kcat/Km came out at 11200 M⁻¹ s⁻¹.

B5: BoGH43B (Bacteroides ovatus ATCC 8483) (protein)
chain: QKTFRNPIITGMNPDPSICRVGDDFYLVTSTFEYFPGLPVYHSKDLVHWKLIGHALSRPENNPLMGCNASTGGQYAPTLRYHDGTFYVIGTNYGGKGSQGVFYVTAKNPAGPWSDPVWVGNWYVDPSIEFIDGKMYFLSPDNQGSFLLGVMDPETGTFVEALRKVASGLGGSSPEGPHFYKIGDYYYIMSAEGGTGYEHREVIQRSKSPWGPYEPSPVNPVLSNMNCPDHPFQAIGHADLVQLKDGSWWAVCLGIRPVNGKYQHLGRETFLAPVTWDADGWPKVGKDGVVQETYLFPNLPSHVWMEQPVRDDFDQETLGLDWTFIRNPAHSFWSLTEKPGSLRLKGTAINFTTNDSPSFIGRRQAAFNLTASAKVNFIPKVENEEAGLVVRADDKNHYDLLITERNGQRVAMIRKTLKDKVVDTTCKELPATGEVILSITATETTYTFEIKAAHVSAILGTASTRDVSNEVVGGFTGVFIGMYASGNGQANTNPADFDWFDFRCLD
For B5, in [7], the Km was found to be 6600 ± 2300 µM, the kcat stood at 0.0005 ± 8.1e-05 s⁻¹ and the kcat/Km is 0.076 M⁻¹ s⁻¹.

B6: BoGH43A (Bacteroides ovatus ATCC 8483) (protein)
chain: QGYSNPVIPGFHPDPSVCKAGDDYYLVNSSFQYFPGVPLFHSKDLVHWEQIGNCLTRPSQLDLTNANSGSGIFAPTIRYNDGVFYMITTNVSGKGNFLVHTTDPRSEWSEPVWLEQGGIDPSLYFEDGKCFMVSNPDGYINLCEIDPMTGKQLSSSKRIWNGTGGRYAEGPHIYKKDGWYYLLISEGGTELGHKVTIARSRYIDGPYQGNPANPILTHANESGQSSPIQGTGHADLVEGTDGSWWMVCLAYRIMPGTHHTLGRETYLAPVRWDKDAWPVVNSNGTISLKMDVPTLPQQEMKGRPERIDFKEGKLSPEWIHLQNPEAKNYIFTKDGKLRLIATPVTLSDWKSPTFVALRQEHFDMEASAPVVLQKAGVNDEAGISVFMEFHSHYDLFVRQDKDRKRSVGLRYKLGEITHYAKEVSLPTDGEVELVVKSDINYYYFGYKVNGIYHDLGKMNTRYLSTETAGGFTGVVLGLYITSASKDSKAYADFEYFKYKGKPGENK
On to B6, for which, in data set [8], the Km came to 710 ± 30 µM, the kcat is 0.057 ± 0.001 s⁻¹ and the kcat/Km came out at 81 M⁻¹ s⁻¹. Besides, in data set [9], the Km was 6580 ± 210 µM, the kcat worked out at 0.26 ± 0.005 s⁻¹ and the kcat/Km amounted to 39 M⁻¹ s⁻¹.
